From patent publication US20040122077

What was measured:
[1] = tested on: T1, mutant eNOS peptide (1174-1194) with serine 1179 substituted by alanine
T1 sequence: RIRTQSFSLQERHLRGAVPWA

[2] = tested on: T2, wild type eNOS peptide 1174-RIRTQSFSLQERHLRGAVPWA-1194
T2 sequence: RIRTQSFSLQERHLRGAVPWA

endogenous eNOS of HUVEC = target: T3, endogenous eNOS of HUVEC (UniProt P29474)
T3 sequence: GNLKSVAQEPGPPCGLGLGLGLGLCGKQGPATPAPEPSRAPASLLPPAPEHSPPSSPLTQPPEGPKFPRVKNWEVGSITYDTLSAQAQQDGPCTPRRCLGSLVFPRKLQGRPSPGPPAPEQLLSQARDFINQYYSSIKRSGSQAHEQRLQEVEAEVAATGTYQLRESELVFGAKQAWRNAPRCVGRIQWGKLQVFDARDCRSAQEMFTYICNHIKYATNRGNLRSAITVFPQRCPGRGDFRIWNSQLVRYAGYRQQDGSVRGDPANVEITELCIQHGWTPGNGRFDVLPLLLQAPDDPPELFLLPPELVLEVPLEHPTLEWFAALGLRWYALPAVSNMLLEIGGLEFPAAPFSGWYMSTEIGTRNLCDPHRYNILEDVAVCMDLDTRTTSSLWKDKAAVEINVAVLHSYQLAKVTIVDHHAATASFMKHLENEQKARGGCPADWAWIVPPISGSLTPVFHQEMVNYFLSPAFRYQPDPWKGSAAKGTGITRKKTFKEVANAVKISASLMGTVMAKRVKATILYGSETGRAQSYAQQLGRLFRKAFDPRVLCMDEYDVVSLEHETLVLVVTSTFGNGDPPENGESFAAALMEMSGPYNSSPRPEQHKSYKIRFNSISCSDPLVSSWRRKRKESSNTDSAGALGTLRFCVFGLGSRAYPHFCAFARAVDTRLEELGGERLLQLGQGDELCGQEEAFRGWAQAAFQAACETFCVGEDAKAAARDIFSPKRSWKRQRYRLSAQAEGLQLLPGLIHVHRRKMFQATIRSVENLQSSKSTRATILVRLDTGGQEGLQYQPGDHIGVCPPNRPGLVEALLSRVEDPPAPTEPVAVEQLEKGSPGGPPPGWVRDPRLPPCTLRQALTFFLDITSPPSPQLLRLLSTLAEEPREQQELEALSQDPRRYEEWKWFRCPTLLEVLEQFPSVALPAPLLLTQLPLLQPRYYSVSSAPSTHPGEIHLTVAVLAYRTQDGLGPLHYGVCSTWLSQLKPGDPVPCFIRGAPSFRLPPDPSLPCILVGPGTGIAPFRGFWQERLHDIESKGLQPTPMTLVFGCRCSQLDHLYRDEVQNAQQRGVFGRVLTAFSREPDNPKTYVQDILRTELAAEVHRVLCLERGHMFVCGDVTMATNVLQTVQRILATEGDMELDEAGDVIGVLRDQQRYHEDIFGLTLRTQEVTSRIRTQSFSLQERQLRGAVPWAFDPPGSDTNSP

Row | Substance | phosphorylation of histone H2B by immunoprecipitated Akt (autoradiography) (histone H2B) | 32P incorporation into eNOS peptide by immunoprecipitated Akt (in vitro kinase assay) [1] | 32P incorporation into eNOS peptide by immunoprecipitated Akt (in vitro kinase assay) [2] | 32P-phosphate incorporation into endogenous eNOS in HUVEC (immunoprecipitation, autoradiography) (endogenous eNOS of HUVEC)
1 | Akt immunoprecipitated from HUVEC lysate with goat polyclonal anti-Akt1 antibody | Akt polypeptide kinase activity was increased in lysates of HUVEC treated with 1.0 µM simvastatin or 100 ng/ml VEGF | a peptide with alanine substituted for serine at position 1179 did not incorporate appreciable phosphate under any condition tested | Activation of Akt kinase activity was also observed when lysates prepared from simvastatin-treated cells were tested for their ability to phosphorylate a peptide containing the Akt phosphorylation site of eNOS (amino acids 1174 to 1194) | 
2 | constitutively-active Akt (myrAkt), expressed in HUVEC from an adenovirus |  |  |  | adenovirus-mediated transduction of constitutively-active Akt (myrAkt) led to the incorporation of phosphate into eNOS in the absence of stimulation with simvastatin or VEGF
